# T1: hNPR1-ANP complex (human, UniProt P01160 124-151, limits assumed)
# T1 construct: hNPR1 antigen in the presence of ANP; also called hNPR1 + 100 nM ANP
# T1 sequence: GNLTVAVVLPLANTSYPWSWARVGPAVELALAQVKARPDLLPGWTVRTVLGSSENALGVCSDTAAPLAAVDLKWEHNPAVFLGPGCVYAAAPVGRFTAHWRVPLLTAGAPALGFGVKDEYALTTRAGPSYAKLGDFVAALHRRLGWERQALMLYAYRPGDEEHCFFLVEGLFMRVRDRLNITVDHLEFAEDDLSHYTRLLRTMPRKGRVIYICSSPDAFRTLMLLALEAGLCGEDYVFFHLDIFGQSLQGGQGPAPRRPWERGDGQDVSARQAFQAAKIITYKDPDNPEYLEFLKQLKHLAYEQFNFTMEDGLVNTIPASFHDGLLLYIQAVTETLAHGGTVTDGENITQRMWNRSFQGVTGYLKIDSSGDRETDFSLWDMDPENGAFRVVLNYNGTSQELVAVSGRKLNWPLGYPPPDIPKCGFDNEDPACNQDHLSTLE
# T1 sequence (peptide): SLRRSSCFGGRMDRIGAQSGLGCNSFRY
# T2: human NPR1 on CHO-K1 cells in the presence of ANP (human, UniProt P01160 124-151)
# T2 construct: also called hNPR1 CHO K1 + 100 nM ANP
# T2 sequence: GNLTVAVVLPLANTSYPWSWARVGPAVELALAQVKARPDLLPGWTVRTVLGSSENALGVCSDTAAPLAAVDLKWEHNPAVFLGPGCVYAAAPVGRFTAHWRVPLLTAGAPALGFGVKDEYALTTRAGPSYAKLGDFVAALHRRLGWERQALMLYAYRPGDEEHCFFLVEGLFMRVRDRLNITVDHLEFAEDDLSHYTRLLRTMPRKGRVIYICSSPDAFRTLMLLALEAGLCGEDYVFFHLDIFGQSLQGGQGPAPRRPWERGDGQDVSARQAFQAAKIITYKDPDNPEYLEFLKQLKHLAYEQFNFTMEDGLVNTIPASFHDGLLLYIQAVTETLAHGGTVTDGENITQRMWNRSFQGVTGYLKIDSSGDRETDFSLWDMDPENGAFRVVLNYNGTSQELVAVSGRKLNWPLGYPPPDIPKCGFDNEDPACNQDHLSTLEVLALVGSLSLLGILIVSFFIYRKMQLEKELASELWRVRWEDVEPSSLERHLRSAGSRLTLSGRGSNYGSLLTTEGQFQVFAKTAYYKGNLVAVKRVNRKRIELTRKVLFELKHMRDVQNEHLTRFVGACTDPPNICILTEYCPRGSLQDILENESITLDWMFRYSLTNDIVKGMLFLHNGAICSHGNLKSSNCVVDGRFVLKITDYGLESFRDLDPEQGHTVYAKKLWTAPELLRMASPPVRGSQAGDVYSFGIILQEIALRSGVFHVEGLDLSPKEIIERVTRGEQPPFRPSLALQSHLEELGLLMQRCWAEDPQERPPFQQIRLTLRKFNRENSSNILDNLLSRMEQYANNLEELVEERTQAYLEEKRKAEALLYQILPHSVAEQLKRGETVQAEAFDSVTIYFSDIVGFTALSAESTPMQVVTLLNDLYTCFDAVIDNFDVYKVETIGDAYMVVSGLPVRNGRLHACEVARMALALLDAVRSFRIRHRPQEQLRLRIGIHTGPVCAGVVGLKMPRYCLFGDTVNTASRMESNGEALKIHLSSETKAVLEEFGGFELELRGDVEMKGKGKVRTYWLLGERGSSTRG
# T2 sequence (peptide): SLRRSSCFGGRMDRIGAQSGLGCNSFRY
# T3: human NPR1 on CHO-K1 cells (human, UniProt P16066 33-1061)
# T3 construct: also called hNPR1 CHO K1; human NPR1 expressing CHO-K1 cells
# T3 sequence: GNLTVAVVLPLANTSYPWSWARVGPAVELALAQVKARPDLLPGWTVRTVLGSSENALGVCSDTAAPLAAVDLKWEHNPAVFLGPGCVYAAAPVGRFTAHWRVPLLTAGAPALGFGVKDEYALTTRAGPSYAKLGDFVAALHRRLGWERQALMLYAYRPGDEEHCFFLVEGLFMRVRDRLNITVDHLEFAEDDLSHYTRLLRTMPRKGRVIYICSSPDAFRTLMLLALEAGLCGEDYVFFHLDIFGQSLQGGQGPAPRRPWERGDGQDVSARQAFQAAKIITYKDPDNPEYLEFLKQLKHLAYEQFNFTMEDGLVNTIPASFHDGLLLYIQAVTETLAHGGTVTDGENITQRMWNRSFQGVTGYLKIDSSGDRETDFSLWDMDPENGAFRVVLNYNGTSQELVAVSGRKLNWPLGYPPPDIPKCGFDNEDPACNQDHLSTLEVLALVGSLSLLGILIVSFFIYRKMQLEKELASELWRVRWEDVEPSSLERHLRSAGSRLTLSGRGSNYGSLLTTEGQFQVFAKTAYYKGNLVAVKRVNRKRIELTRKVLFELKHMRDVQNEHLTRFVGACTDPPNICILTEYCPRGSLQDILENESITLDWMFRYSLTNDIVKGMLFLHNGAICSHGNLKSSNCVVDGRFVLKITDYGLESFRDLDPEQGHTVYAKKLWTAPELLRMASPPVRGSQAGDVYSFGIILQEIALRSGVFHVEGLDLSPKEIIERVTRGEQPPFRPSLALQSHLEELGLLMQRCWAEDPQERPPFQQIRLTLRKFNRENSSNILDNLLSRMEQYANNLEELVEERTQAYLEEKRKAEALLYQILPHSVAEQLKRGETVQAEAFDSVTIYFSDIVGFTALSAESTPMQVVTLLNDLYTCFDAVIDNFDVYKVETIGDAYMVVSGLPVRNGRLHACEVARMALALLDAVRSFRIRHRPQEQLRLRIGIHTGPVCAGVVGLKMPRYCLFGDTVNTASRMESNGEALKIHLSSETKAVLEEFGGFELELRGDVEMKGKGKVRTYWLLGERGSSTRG
# T4: rNPR1-ANP complex (rat, UniProt P01160 124-151 (human entry), limits assumed)
# T4 construct: rNPR1 antigen in the presence of ANP; also called rNPR1 + 100 nM ANP
# T4 sequence: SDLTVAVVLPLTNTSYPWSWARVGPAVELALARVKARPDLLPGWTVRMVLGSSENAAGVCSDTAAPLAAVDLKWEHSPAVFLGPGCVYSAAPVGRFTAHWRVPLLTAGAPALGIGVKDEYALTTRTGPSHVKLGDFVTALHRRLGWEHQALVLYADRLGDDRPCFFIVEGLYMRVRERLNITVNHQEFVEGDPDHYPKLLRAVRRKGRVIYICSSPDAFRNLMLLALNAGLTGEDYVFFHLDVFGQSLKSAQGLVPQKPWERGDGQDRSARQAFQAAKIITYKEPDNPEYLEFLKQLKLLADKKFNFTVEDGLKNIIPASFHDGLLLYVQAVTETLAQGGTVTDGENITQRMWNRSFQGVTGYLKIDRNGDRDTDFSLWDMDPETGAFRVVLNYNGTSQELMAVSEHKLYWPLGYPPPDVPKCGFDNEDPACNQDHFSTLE
# T4 sequence (peptide): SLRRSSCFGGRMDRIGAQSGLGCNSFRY
# How the values were obtained:
# hNPR1-ANP complex [1] = target: T1, hNPR1-ANP complex; assay: ELISA, IgG
# [2] = target: T2, human NPR1 on CHO-K1 cells in the …; assay: flow cytometry, hNPR1 CHO-K1 cells, IgG
# [3] = target: T3, human NPR1 on CHO-K1 cells; assay: flow cytometry, hNPR1 CHO-K1 cells, IgG
# [4] = target: T2, human NPR1 on CHO-K1 cells in the …; assay: flow cytometry (FL2-H) on hNPR1 CHO-K1 cells with saturating ANP, IgG titrated; control parental CHO-K1 [panel WW01]
# [5] = target: T3, human NPR1 on CHO-K1 cells; assay: cell-based or functional assay
# hNPR1-ANP complex [6] = target: T1, hNPR1-ANP complex; assay: FabCys affinity (Octet per Table 18 comment)
# rNPR1-ANP complex [7] = target: T4, rNPR1-ANP complex; assay: FabCys affinity (Octet per Table 18 comment)
# hNPR1-ANP complex [8] = target: T1, hNPR1-ANP complex; assay: Octet, FabCys; comment: Heterogenous binding
# rNPR1-ANP complex [9] = target: T4, rNPR1-ANP complex; assay: Octet, FabCys; comment: Heterogenous binding
# hNPR1-ANP complex [10] = target: T1, hNPR1-ANP complex; assay: FabCys, parental value by Octet (table comment), as in Table 14
# rNPR1-ANP complex [11] = target: T4, rNPR1-ANP complex; assay: as above
EC50 (hNPR1-ANP complex [1]),flow cytometry S/BG at 2 µM IgG [2],flow cytometry S/BG at 2 µM IgG [3],EC50 (read off the curve) [4],"cGMP conc [nM] at 1 µM FabCys, +0.075 nM ANP [5]","cGMP conc [nM] at 1 µM FabCys, without ANP [5]",Kd (hNPR1-ANP complex [6]),Kd (rNPR1-ANP complex [7]),Kd (hNPR1-ANP complex [8]),Kd (rNPR1-ANP complex [9]),Kd (hNPR1-ANP complex [10]),Kd (rNPR1-ANP complex [11]),Binder
1 nM,222 S/BG,19.9 S/BG,~3 nM,–,–,–,–,–,–,–,–,"WW01 (IgG format) (antibody, V domains shown, also called WW01_LALA) VH: QVQLLESGGGLVQPGGSLRLSCAASGFTFNTHYIHWVRQAPGKGLEWVSSISGSGSNTYYADSVKGRFTISRDNSKNTLYLQMNSLRAEDTAVYYCARERGYVYYHMFDPWGQGTLVTVSS VL: DIVLTQSPATLSLSPGERATLSCRASQSITRNYLAWYQQKPGQAPRLLIYGASSRATGIPARFSGSGSGTDFTLTISSLEPEDFAVYYCQQHSMYPRTFGQGTKVEIKR"
–,–,–,–,46 nM,15 nM,16 nM,14 nM,26 nM,8.8 nM,16 nM,14 nM,"YY01 (FabCys format) (Fab, V domains shown, Monovalent FabCys) VH: EVQLVESGGGLVQPGGSLRLSCAASGFTFSSYWISWVRQAPGKGLEWVANIKQSGSETYYVESVKGRFTISRDNAKNSLYLQMNSLRAEDTAVYYCARSLRRRSTEHAGFDVWGQGTLVTVSS VL: DIQMTQSPSSLSASVGDRVTITCRASQGISNYLAWYQQKPGKVPKLLIYAASTLQSGVPSRFSGSGSGTDFTLTISSLQPEDVATYYCQQADKFPYTFGQGTKVEIK"

# Source: patent US20240052042A1 (Novartis, published 2024)
